Substrate in data set [1]: Cc1cc(=O)oc2c(F)c(OP(=O)(O)O)c(F)cc12
Put plainly: fluorogenic DiFMUP hydrolysis, Michaelis-Menten fit. Type of data set: biochemical, Homo sapiens. As to conditions: 50 mM Hepes, 3 mM DTT, 0.1 mg/ml BSA, pH 6.5, 37 °C, DiFMUP 0-300 µM, wild type inactive. From the text:
fluorogenic DiFMUP hydrolysis, Michaelis-Menten fit on Flag-HD-PTP full-length (HD)

Substrate in data set [2]: Cc1cc(=O)oc2c(F)c(OP(=O)(O)O)c(F)cc12
The description is as above. The class given is biochemical, Homo sapiens. As to conditions: 50 mM Hepes, 3 mM DTT, 0.1 mg/ml BSA, pH 6.5, 37 °C, DiFMUP 0-300 µM, wild type inactive. An excerpt: fluorogenic DiFMUP hydrolysis, Michaelis-Menten fit on Flag-HD-PTP catalytic domain (CD)
The source holds these as a separate data set.

B1: Flag-HD-PTP full-length (HD) (Homo sapiens; S1394A) (protein)
chain: MEAVPRMPMIWLDLKEAGDFHFQPAVKKFVLKNYGENPEAYNEELKKLELLRQNAVRVPRDFEGCSVLRKYLGQLHYLQSRVPMGSGQEAAVPVTWTEIFSGKSVAHEDIKYEQACILYNLGALHSMLGAMDKRVSEEGMKVSCTHFQCAAGAFAYLREHFPQAYSVDMSRQILTLNVNLMLGQAQECLLEKSMLDNRKSFLVARISAQVVDYYKEACRALENPDTASLLGRIQKDWKKLVQMKIYYFAAVAHLHMGKQAEEQQKFGERVAYFQSALDKLNEAIKLAKGQPDTVQDALRFTMDVIGGKYNSAKKDNDFIYHEAVPALDTLQPVKGAPLVKPLPVNPTDPAVTGPDIFAKLVPMAAHEASSLYSEEKAKLLREMMAKIEDKNEVLDQFMDSMQLDPETVDNLDAYSHIPPQLMEKCAALSVRPDTVRNLVQSMQVLSGVFTDVEASLKDIRDLLEEDELLEQKFQEAVGQAGAISITSKAELAEVRREWAKYMEVHEKASFTNSELHRAMNLHVGNLRLLSGPLDQVRAALPTPALSPEDKAVLQNLKRILAKVQEMRDQRVSLEQQLRELIQKDDITASLVTTDHSEMKKLFEEQLKKYDQLKVYLEQNLAAQDRVLCALTEANVQYAAVRRVLSDLDQKWNSTLQTLVASYEAYEDLMKKSQEGRDFYADLESKVAALLERTQSTCQAREAARQQLLDRELKKKPPPRPTAPKPLLPRREESEAVEAGDPPEELRSLPPDMVAGPRLPDTFLGSATPLHFPPSPFPSSTGPGPHYLSGPLPPGTYSGPTQLIQPRAPGPHAMPVAPGPALYPAPAYTPELGLVPRSSPQHGVVSSPYVGVGPAPPVAGLPSAPPPQFSGPELAMAVRPATTTVDSIQAPIPSHTAPRPNPTPAPPPPCFPVPPPQPLPTPYTYPAGAKQPIPAQHHFSSGIPAGFPAPRIGPQPQPHPQPHPSQAFGPQPPQQPLPLQHPHLFPPQAPGLLPPQSPYPYAPQPGVLGQPPPPLHTQLYPGPAQDPLPAHSGALPFPSPGPPQPPHPPLAYGPAPSTRPMGPQAAPLTIRGPSSAGQSTPSPHLVPSPAPSPGPGPVPPRPPAAEPPPCLRRGAAAADLLSSSPESQHGGTQSPGGGQPLLQPTKVDAAEGRRPQALRLIERDPYEHPERLRQLQQELEAFRGQLGDVGALDTVWRELQDAQEHDARGRSIAIARCYSLKNRHQDVMPYDSNRVVLRSGKDDYINASCVEGLSPYCPPLVATQAPLPGTAADFWLMVHEQKVSVIVMLVSEAEMEKQKVARYFPTERGQPMVHGALSLALSSVRSTETHVERVLSLQFRDQSLKRSLVHLHFPTWPELGLPDSPSNLLRFIQEVHAHYLHQRPLHTPIIVHCSAGVGRTGAFALLYAAVQEVEAGNGIPELPQLVRRMRQQRKHMLQEKLHLRFCYEAVVRHVEQVLQRHGVPPPCKPLASASISQKNHLPQDSQDLVLGGDVPISSIQATIAKLSIRPPGGLESPVASLPGPAEPPGLPPASLPESTPIPSSSPPPLSSPLPEAPQPKEEPPVPEAPSSGPPSSSLELLASLTPEAFSLDSSLRGKQRMSKHNFLQAHNGQGLRATRPSDDPLSLLDPLWTLNKT
notes: full length, residues 1-1636, 2xFlag tag kept, expressed in HEK 293T, anti-Flag purified
As for B1, in data set [1], the Michaelis constant (Km) is given as 28 µM, the kcat worked out at 0.2 s⁻¹ and the kcat/Km amounted to 6000 M⁻¹ s⁻¹.

B2: Flag-HD-PTP catalytic domain (CD) (Homo sapiens; S1394A) (protein)
chain: ERLRQLQQELEAFRGQLGDVGALDTVWRELQDAQEHDARGRSIAIARCYSLKNRHQDVMPYDSNRVVLRSGKDDYINASCVEGLSPYCPPLVATQAPLPGTAADFWLMVHEQKVSVIVMLVSEAEMEKQKVARYFPTERGQPMVHGALSLALSSVRSTETHVERVLSLQFRDQSLKRSLVHLHFPTWPELGLPDSPSNLLRFIQEVHAHYLHQRPLHTPIIVHCSAGVGRTGAFALLYAAVQEVEAGNGIPELPQLVRRMRQQRKHMLQEKLHLRFCYEAVVRHVEQVLQRH
notes: PTP catalytic domain, residues 1169-1460, 2xFlag tag kept, expressed in HEK 293T, anti-Flag purified
On to B2, for which, in data set [2], the Km amounted to 18 µM and the kcat came to 0.1 s⁻¹.
